Laboratory results reported in patent US20190030120A1 (ACADEMIA SINICA, published 2019).

T1: Aurora A (UniProt O14965 1-403)
T1 construct: In the kinase assay it was present in 293T cell extracts, not purified; also called Aurora A kinase
T1 sequence (looked up): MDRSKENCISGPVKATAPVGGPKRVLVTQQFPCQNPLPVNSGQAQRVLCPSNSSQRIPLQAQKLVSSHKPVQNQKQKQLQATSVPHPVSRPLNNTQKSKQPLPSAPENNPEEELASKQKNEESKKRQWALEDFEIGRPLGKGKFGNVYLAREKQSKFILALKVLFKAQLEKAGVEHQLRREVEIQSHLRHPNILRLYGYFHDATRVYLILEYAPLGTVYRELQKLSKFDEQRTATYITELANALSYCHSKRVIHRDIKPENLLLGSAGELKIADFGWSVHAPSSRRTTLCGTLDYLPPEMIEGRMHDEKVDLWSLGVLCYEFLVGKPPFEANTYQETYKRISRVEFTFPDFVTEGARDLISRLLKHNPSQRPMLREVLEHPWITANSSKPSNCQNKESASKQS

T2: endogenous TIFA (U937 cells) (Homo sapiens, UniProt Q96CG3 1-184)
T2 construct: Endogenous protein of U937 cells
T2 sequence: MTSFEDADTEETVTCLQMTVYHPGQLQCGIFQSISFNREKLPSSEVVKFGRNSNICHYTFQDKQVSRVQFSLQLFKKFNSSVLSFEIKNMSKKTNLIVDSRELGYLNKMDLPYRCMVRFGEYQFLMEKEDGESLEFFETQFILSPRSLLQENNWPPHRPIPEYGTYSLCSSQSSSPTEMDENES

B1: HA-tagged TIFA (full-length TIFA wild-type) (other)
chain: T2 sequence
notes: Expressed in 293T cells from pCDNA3.1. 'full-length TIFA wild-type following a synthesized HA-tag' is read here as an N-terminal tag; also called HA-TIFA; not shown: synthesized HA-tag
B2: TIFA fragment F2F3 with two consecutive Myc-tags (peptide)
chain: VVKFGRNSNICHYTFQDKQVSRVQFSLQLFKKFNSSVLSFEIKNMSKKTNLIVDSRELGYLNKMDLPYRCMVRFGEYQFLMEKEDGESLEFFETQFILSPRSLLQENNWPPHRPIPEYGTYSLCSSQSSSPTEMDENES
notes: Stably expressed in U937 cells by retroviral transduction (pLNCX); also called F2-F3 peptide fragment; DN fragment; not shown: two consecutive Myc-tags (2Myc)
B3: TIFA fragment F1F2 with two consecutive Myc-tags (peptide)
chain: MTSFEDADTEETVTCLQMTVYHPGQLQCGIFQSISFNREKLPSSEVVKFGRNSNICHYTFQDKQVSRVQFSLQLFKKFNSSVLSFEIKNMSKKTNLIVDSREL
notes: Stably expressed in U937 cells by retroviral transduction (pLNCX); also called F1-F2 peptide fragment; DN fragment; not shown: two consecutive Myc-tags (2Myc)

Columns and labels:
Aurora A = target: T1, Aurora A; assay: immunoprecipitation of Aurora A from lysates of 293T cells transfected with HA-tagged TIFA, western blot
Method: After 48 h, cells were treated with or without 10 ng/mL TNF-α (R&D Systems) for 30 min, washed by PBS, and lysed with CHAPS lysis buffer (20 mM PIPES, 1 mM Na₃VO₄, 1 mM EGTA, 50 mM Tris-HCl, 150 mM NaCl, 50 mM NaF, 1% CHAPS, and 10% glycerol) supplemented with protease inhibitor cocktail (Roche), phosphatase inhibitor cocktail 3 (Sigma). Three vig of indicated antibody was pre-coated with 100 μL M-280 Dynabeads (lnvitrogen) overnight at 4° C. The 500 μg cell extracts were incubated with 15 μL antibody-coated Dynabeads at 4° C. overnight. The protein-bead complex was then washed with Tris-buffered saline Tween 20 (TBST) buffer and subjected to Western blot analysis.

[1] = target: T2, endogenous TIFA (U937 cells); assay: anti-Myc immunoprecipitation from lysates of transduced U937 cells, western blot
From the text: AML lines were respectively infected with pseudotyped retroviruses carrying these constructs to generate stable cells. […] (FIG. 5C) Lysates from U937 cells stably expressing TIFA fragments shown in (FIG. 5B) were immunoprecipitated using anti-Myc immunobeads and analyzed by western blot.
We designed to fine-map the minimal effective region for molecular targeting of TIFA in AML cells through retroviral transduction (FIG. 5B).

Binder | binding result (Aurora A) | binding result [1]
B1 | binds | 
B2 |  | binds
B3 |  | binds
